Data on three molecules can be found in patent US6566505 (THOMAS JEFFERSON UNIVERSITY, dated 2003).

Data set [1] deals with T1, wild type proMch6 (35S-labeled, in vitro translated).
T1 chain: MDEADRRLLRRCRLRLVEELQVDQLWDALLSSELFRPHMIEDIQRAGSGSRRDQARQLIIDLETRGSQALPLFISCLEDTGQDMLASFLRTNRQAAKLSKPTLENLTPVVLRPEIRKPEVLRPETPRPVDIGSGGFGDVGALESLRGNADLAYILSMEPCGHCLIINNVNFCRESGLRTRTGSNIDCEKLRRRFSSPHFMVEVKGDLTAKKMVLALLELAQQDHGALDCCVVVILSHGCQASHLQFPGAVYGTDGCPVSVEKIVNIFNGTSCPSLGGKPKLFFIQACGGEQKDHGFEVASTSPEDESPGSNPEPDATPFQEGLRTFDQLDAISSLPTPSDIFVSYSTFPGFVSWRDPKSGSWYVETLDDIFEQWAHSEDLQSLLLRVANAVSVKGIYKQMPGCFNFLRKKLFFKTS

Data set [2] deals with T2, DEVD-AMC (Asp-Glu-Val-Asp-aminomethylcoumarin).
T2 chain: DEVD

Data set [3] addresses T3, ZEVD-AMC (carbobenzoxy-Glu-Val-Asp-aminomethylcoumarin).
T3 chain: EVD

Data set [4] deals with T4, YVAD-AMC (Tyr-Val-Ala-Asp-aminomethylcoumarin).
T4 chain: YVAD

The target in data set [5] is T5, bacterially expressed recombinant Mch6 (6His-C terminal tagged protein) (human, UniProt P55211 1-416).
T5 construct: also called purified Mch6 protein; mammalian ced-3 homolog 6; not shown: C-terminal 6His tag from vector pET21b
T5 chain: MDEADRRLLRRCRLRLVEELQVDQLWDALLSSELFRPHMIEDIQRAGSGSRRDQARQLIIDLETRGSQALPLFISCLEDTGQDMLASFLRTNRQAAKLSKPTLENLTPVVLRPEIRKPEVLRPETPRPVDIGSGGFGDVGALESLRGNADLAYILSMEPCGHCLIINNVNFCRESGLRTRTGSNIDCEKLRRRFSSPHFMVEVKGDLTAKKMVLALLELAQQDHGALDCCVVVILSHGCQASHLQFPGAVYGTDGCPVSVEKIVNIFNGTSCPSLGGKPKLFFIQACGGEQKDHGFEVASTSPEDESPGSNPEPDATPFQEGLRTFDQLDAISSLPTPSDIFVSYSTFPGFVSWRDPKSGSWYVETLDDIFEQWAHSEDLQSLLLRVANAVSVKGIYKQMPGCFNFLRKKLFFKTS
Nature of the data set: inhibition of the hydrolysis of 50 µM DEVD-AMC by recombinant Mch6 after 30 min preincubation with DEVD-CHO, continuous fluorometric assay.

Ends that are not written are not given here.

B1: purified recombinant human CPP32 (protein)
chain: SGISLDNSYKMDYPEMGLCIIINNKNFHKSTGMTSRSGTDVDAANLRETFRNLKYEVRNKNDLTREEIVELMRDVSKEDHSKRSSFVCVLLSHGEEGIIFGTNGPVDLKKITNFFRGDRCRSLTGKPKLFIIQACRGTELDCGIETDSGVDDDMACHKIPVEADFLYAYSTAPGYYSWRNSKDGSWFIQSLCAMLKQYADKLEFMHILTRVNRKVATEFESFSFDATFHAKKQIPCIVSMLTKELYFYH
As to B1, the “processing of 35S-labeled proMch6 (Tricine-SDS-PAGE and autoradiography)” value in data set [1] is “CPP32 cleaves proMch6 at one site to generate two cleavage products of approximately 37 kDa or p37 and approximately 10 kDa or p10”.

B2: bacterially expressed recombinant Mch6 (6His-C terminal tagged protein) (protein)
chain: MDEADRRLLRRCRLRLVEELQVDQLWDALLSSELFRPHMIEDIQRAGSGSRRDQARQLIIDLETRGSQALPLFISCLEDTGQDMLASFLRTNRQAAKLSKPTLENLTPVVLRPEIRKPEVLRPETPRPVDIGSGGFGDVGALESLRGNADLAYILSMEPCGHCLIINNVNFCRESGLRTRTGSNIDCEKLRRRFSSPHFMVEVKGDLTAKKMVLALLELAQQDHGALDCCVVVILSHGCQASHLQFPGAVYGTDGCPVSVEKIVNIFNGTSCPSLGGKPKLFFIQACGGEQKDHGFEVASTSPEDESPGSNPEPDATPFQEGLRTFDQLDAISSLPTPSDIFVSYSTFPGFVSWRDPKSGSWYVETLDDIFEQWAHSEDLQSLLLRVANAVSVKGIYKQMPGCFNFLRKKLFFKTS
B2: in data set [2], the Km (DEVD-AMC) came out at 10 µM and the Vmax/Km (DEVD-AMC) amounted to 100. Besides, the Vmax/Km (ZEVD-AMC) in data set [3] is 2.7. For the same molecule, in data set [4], the Vmax/Km (YVAD-AMC) was less than 0.1.

B3: DEVD-CHO (Asp-Glu-Val-Asp-aldehyde) (peptide)
peptide: DEVD-aldehyde
notes: Tetrapeptide aldehyde substrate analog; also called DEVD-CHO peptide
With B3, the Ki in data set [5] is less than 10 nM.

A word on the Ki: it is the dissociation constant of the complex between target and ligand, obtained from inhibition or displacement.
